Measured values taken from patent US20250195614A1 (IMMUNITYBIO, published 2025).
Blank lines part the entries; values can stand above or below the molecule they belong to.

Tests used:
[1] = biological target: IL2Rβ and common γ chain on 32Dβ cells; test: cell-based or functional assay
TGF-β1 = TGF-β1 (UniProt P01137 279-390); test: cell-based or functional assay
Chain of TGF-β1 (P01137 279-390 limits assumed): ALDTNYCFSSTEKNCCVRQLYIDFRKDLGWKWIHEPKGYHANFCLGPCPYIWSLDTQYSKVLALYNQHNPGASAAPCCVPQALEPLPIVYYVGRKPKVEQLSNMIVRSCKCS

EC50 (printed as IC50), IL-15 activity on IL-15 dependent 32Dβ cells (WST-1, OD450) [1]: 81.8 pM
EC50, 32Dβ cell proliferation (WST1, absorbance 450 nM) [1]: 10.6 pM
Molecule: recombinant IL-15 (from UniProt P40933 49-162) (ligand)

IC50, TGF-β1 blocking activity in HEK-Blue TGF-β cells (OD620) (TGF-β1): 470 pM
IC50, inhibition of TGFβ1 (0.1 nM) activity in HEK-Blue TGFβ cells (QUANTI-Blue OD 620-655 nM) (TGF-β1): 461 pM
TGF-β1 blocking activity against that of TGFRt15-TGFRs or TGFRt15*-TGFRs (HEK-Blue TGF-β cells) (TGF-β1): ~10 fold
B1: commercial TGF-β1 receptor II-Fc fusion (TGFRII/Fc, R&D Systems) (Fc fusion, UniProt P37173 24-159, looked up, not shown: a dimerising Fc or GST)
chain: IPPHVQKSVNNDMIVTDNNGAVKFPQLCKFCDVRFSTCDNQKSCMSNCSITSICEKPQEVCVAVWRKNDENITLETVCHDPKLPYHDFILEDAASPKCIMKEKKKPGETFFMCSCSSDECNDNIIFSEEYNTSNPD
